According to paper PMC6566259, “Engineering of Nanobodies Recognizing the Human Chemokine Receptor CCR7” (International Journal of Molecular Sciences, 2019):

How the values were obtained:
Conditions in all cases: partners not purified
CCR7-SmBiT = molecular target: T1, CCR7-SmBiT (Homo sapiens, UniProt P32248); experiment: split reporter (BiFC, NanoBiT); split-luciferase complementation; HEK293 cells co-expressing GPCR-SmBiT and Nb-LgBiT (plasmid ratio 1:1), coelenterazine H 5 µM, luminescence before and after 10 µM isoproterenol, 1.5 µg/mL CCL19 or PBS
T1 construct: Chemokine receptor CCR7, human; amplified from pcDNA3-CCR7-HA and ligated to SmBiT amplified from pAAVS1P-iCLHN; A Gly/Ser linker between CCR7 and SmBiT is surmised from the primer; also called pcDNA3-CCR7-SmBiT; pBiT2.1-C-CCR7-SmBiT; source: HEK293, transiently transfected, in cells; not shown: SmBiT (Small BiT of NanoLuc), C-terminal, kept
T1 sequence (P32248 25-378): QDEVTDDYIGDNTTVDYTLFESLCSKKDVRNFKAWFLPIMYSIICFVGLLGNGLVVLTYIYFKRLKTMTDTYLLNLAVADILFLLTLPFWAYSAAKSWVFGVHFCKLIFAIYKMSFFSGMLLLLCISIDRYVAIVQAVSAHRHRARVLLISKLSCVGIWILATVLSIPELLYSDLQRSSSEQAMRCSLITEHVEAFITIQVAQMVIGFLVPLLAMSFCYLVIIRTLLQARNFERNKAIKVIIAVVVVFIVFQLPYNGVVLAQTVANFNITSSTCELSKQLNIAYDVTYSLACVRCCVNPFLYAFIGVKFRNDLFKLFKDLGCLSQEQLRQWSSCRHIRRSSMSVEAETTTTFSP

CCR7-YFP2 = molecular target: T2, CCR7-YFP2 (Homo sapiens, UniProt P32248); experiment: split reporter (BiFC, NanoBiT); BiFC read by confocal microscopy; HEK293 cells stably expressing CCR7-YFP2, transiently transfected with Nb-YFP1, unstimulated or stimulated with 0.5 µg/mL CCL19, fixed
T2 construct: Chemokine receptor CCR7, human; amplified by PCR and subcloned into the split-YFP2 BiFC vector; also called CC chemokine receptor 7; CCR7-Y2; source: HEK293, transiently or stably transfected, in cells; not shown: split-YFP2, C-terminal, kept
T2 sequence (P32248 25-378): as above

β2AR-YFP2 = molecular target: T3, β2AR-YFP2 (human, UniProt P07550); experiment: split reporter (BiFC, NanoBiT); BiFC read by flow cytometry; HEK293 cells co-expressing Nb-YFP1 and GPCR-YFP2, stimulated 20 min with 10 µM isoproterenol or 0.5 µg/mL CCL19, fixed in 4% formaldehyde
T3 construct: also called β2-adrenergic receptor; ADRB2; source: HEK293, transiently transfected, in cells; not shown: split-YFP2, C-terminal, kept

β2AR-SmBiT [1] = molecular target: T4, β2AR-SmBiT (UniProt P07550); experiment: split reporter (BiFC, NanoBiT); G-protein competition assay based on split-luciferase complementation; HEK293 cells co-expressing GPCR-SmBiT, LgBiT-mini-Gαi and Nb-YFP1 or pcDNA3 (1:1:1), stimulated with 10 µM isoproterenol or 1.5 µg/mL CCL19; fold increase in luminescence over baseline
T4 construct: β2-adrenergic receptor; also called pBiT2.1-C-β2AR-SmBiT; source: HEK293, transiently transfected, in cells; not shown: SmBiT (Small BiT of NanoLuc), C-terminal, kept

β2AR-SmBiT [2] = molecular target: T4, β2AR-SmBiT; experiment: split reporter (BiFC, NanoBiT); split-luciferase complementation; HEK293 cells co-expressing GPCR-SmBiT and Nb-LgBiT (plasmid ratio 1:1), coelenterazine H 5 µM, luminescence before and after 10 µM isoproterenol, 1.5 µg/mL CCL19 or PBS

Binder	binding result (CCR7-SmBiT)	binding result (CCR7-YFP2)	other results
Nb1-LgBiT (VHH, As the VHH of m3 (Nb1): Nb80 with randomised segments in CDR1 and CDR3; source: HEK293, transiently transfected, in cells; not shown: LgBiT (Large BiT of NanoLuc), C-terminal, kept) VHH: QVQLQESGGGLVQAGGSLRLSCAASGLRFSRNTMGWYRQAPGKQRELVAAIHSGGSTNYANSVKGRFTISRDNAANTVYLQMNSLKPEDTAVYYCNVKDWNNQPNGDDYWGQGTQVTVSS	binds		
Nb1-YFP1 (VHH, As the VHH of m1 (Nb80) with randomised segments in CDR1 and CDR3; Clone from the synthetically randomised Nb80 library; also called Nb1-Y1; source: HEK293, transiently transfected, in cells; not shown: split-YFP1 (N-terminal part of split-YFP), C-terminal, kept) VHH: QVQLQESGGGLVQAGGSLRLSCAASGLRFSRNTMGWYRQAPGKQRELVAAIHSGGSTNYANSVKGRFTISRDNAANTVYLQMNSLKPEDTAVYYCNVKDWNNQPNGDDYWGQGTQVTVSS		binds	
Nb80-YFP1 (VHH, Nanobody Nb80 against the β2-adrenergic receptor; The reverse PCR primer appears to encode a His6 stretch at the C-terminus of Nb80, ahead of YFP1 (surmised from the primer); No PDB id is printed; also called Nb80-Y1; pcDNA3-Nb80-YFP1; source: HEK293, transiently transfected, in cells; not shown: split-YFP1 (N-terminal part of split-YFP), C-terminal, kept) VHH: QVQLQESGGGLVQAGGSLRLSCAASGSIFSINTMGWYRQAPGKQRELVAAIHSGGSTNYANSVKGRFTISRDNAANTVYLQMNSLKPEDTAVYYCNVKDYGAVLYEYDYWGQGTQVTVSS			binding result (β2AR-YFP2): binds; binding result (β2AR-SmBiT [1]): binds
Nb80-LgBiT (VHH, As the VHH of m1 (Nb80); Nb80 was moved from pcDNA3-Nb80-YFP1 into pcDNA3-CCR7-LgBiT by HindIII and ClaI, followed by site-directed mutagenesis at the junction; A Gly/Ser linker before LgBiT is surmised from the primers; also called pcDNA3-Nb80-LgBiT; source: HEK293, transiently transfected, in cells; not shown: LgBiT (Large BiT of NanoLuc), C-terminal, kept) VHH: QVQLQESGGGLVQAGGSLRLSCAASGSIFSINTMGWYRQAPGKQRELVAAIHSGGSTNYANSVKGRFTISRDNAANTVYLQMNSLKPEDTAVYYCNVKDYGAVLYEYDYWGQGTQVTVSS			binding result (β2AR-SmBiT [2]): binds
Nb5-LgBiT (VHH, As the VHH of m5 (Nb5): Nb80 with randomised segments in CDR1 and CDR3; source: HEK293, transiently transfected, in cells; not shown: LgBiT (Large BiT of NanoLuc), C-terminal, kept) VHH: QVQLQESGGGLVQAGGSLRLSCAASGCVPGPNTMGWYRQAPGKQRELVAAIHSGGSTNYANSVKGRFTISRDNAANTVYLQMNSLKPEDTAVYYCNVKDETRTRHQNDYWGQGTQVTVSS	binds		
Nb5-YFP1 (VHH, As the VHH of m1 (Nb80) with randomised segments in CDR1 and CDR3; Clone from the synthetically randomised Nb80 library; also called Nb5-Y1; source: HEK293, transiently transfected, in cells; not shown: split-YFP1 (N-terminal part of split-YFP), C-terminal, kept) VHH: QVQLQESGGGLVQAGGSLRLSCAASGCVPGPNTMGWYRQAPGKQRELVAAIHSGGSTNYANSVKGRFTISRDNAANTVYLQMNSLKPEDTAVYYCNVKDETRTRHQNDYWGQGTQVTVSS		binds	
Nb38-LgBiT (VHH, As the VHH of m7 (Nb38): Nb80 with randomised segments in CDR1 and CDR3; source: HEK293, transiently transfected, in cells; not shown: LgBiT (Large BiT of NanoLuc), C-terminal, kept) VHH: QVQLQESGGGLVQAGGSLRLSCAASGHTMFSNTMGWYRQAPGKQRELVAAIHSGGSTNYANSVKGRFTISRDNAANTVYLQMNSLKPEDTAVYYCNVKDFLGLIHFRDYWGQGTQVTVSS	binds		
Nb38-YFP1 (VHH, As the VHH of m1 (Nb80) with randomised segments in CDR1 and CDR3; Clone from the synthetically randomised Nb80 library; also called Nb38-Y1; source: HEK293, transiently transfected, in cells; not shown: split-YFP1 (N-terminal part of split-YFP), C-terminal, kept) VHH: QVQLQESGGGLVQAGGSLRLSCAASGHTMFSNTMGWYRQAPGKQRELVAAIHSGGSTNYANSVKGRFTISRDNAANTVYLQMNSLKPEDTAVYYCNVKDFLGLIHFRDYWGQGTQVTVSS		binds	
